# T1: Yku80 (S. cerevisiae, UniProt Q04437 1-629)
# T1 sequence (looked up): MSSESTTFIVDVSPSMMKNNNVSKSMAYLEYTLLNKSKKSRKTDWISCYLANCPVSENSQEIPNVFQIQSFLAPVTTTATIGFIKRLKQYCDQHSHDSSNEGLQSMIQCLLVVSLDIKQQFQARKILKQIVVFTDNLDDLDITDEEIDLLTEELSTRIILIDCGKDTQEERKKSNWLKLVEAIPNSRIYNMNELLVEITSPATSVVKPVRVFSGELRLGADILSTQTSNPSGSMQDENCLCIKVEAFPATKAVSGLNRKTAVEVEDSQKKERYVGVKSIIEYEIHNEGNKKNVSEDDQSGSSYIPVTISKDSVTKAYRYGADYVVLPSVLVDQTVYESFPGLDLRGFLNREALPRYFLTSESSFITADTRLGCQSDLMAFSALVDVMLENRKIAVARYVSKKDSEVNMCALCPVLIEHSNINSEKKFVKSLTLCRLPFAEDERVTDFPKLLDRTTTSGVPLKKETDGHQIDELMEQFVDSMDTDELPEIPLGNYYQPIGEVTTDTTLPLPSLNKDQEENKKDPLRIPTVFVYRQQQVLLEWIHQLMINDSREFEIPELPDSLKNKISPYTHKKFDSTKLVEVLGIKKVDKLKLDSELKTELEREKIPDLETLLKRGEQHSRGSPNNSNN
# B1: Yku70 (natural protein, S. cerevisiae, UniProt P32807 1-602, looked up)
# chain: MRSVTNAFGNSGELNDQVDETGYRKFDIHEGILFCIELSETMFKESSDLEYKSPLLEILESLDELMSQLVITRPGTAIGCYFYYCNREDAKEGIYELFPLRDINATFMKKLNDLLEDLSSGRISLYDYFMFQQTGSEKQVRLSVLFTFMLDTFLEEIPGQKQLSNKRVFLFTDIDKPQEAQDIDERARLRRLTIDLFDNKVNFATFFIGYADKPFDNEFYSDILQLGSHTNENTGLDSEFDGPSTKPIDAKYIKSRILRKKEVKRIMFQCPLILDEKTNFIVGVKGYTMYTHEKAGVRYKLVYEHEDIRQEAYSKRKFLNPITGEDVTGKTVKVYPYGDLDINLSDSQDQIVMEAYTQKDAFLKIIGFRSSSKSIHYFNNIDKSSFIVPDEAKYEGSIRTLASLLKILRKKDKIAILWGKLKSNSHPSLYTLSPSSVKDYNEGFYLYRVPFLDEIRKFPSLLSYDDGSEHKLDYDNMKKVTQSIMGYFNLRDGYNPSDFKNPLLQKHYKVLHDYLLQIETTFDENETPNTKKDRMMREDDSLRKLYYIRNKILESEKSEDPIIQRLNKYVKIWNMFYKKFNDDNISIKEEKKPFDKKPKFNI
# Target: T1, Yku80
# Test: cryo-EM structure
binder,measurement,value
B1,binding result,binds
